These results are taken from patent publication US20120316071A1 (published 2012).

The target of test [1] is T1, Recombinant Human DLL4 (R&D Systems Cat#1506-D4/CF) (human, UniProt Q9NR61 27-524).
T1 construct: Bought recombinant protein; also called delta-like protein 4; rHuman DLL4
Nature of the test: ECL Multispot (MSD), DLL4 spotted, 10 nM Fab.

Test [2] deals with T1, Recombinant Human DLL4 (R&D Systems …). As to the kind of experiment: ELISA, DLL4 coated, 100 nM Fab, absorbance at 450 nm minus noise. Background: An ELISA detects its analyte on a solid surface through an enzyme-linked reagent.
For test [3], the target named is T2, Recombinant Human DLL4 (delta-like protein 4) (human, UniProt Q9NR61 27-524).
T2 construct: Bought recombinant protein (R&D Systems Cat#1506-D4/CF) coated on the ELISA plate; also called rHuman DLL4; Delta-like 4
As to the kind of experiment: ELISA, DLL4 coated on plate, Fab at 10 nM, absorbance at 450 nm.

Test [4] deals with T2, Recombinant Human DLL4 (delta-like …). As to the kind of experiment: ELISA, DLL4 coated on plate, Fab at 5 nM, absorbance at 450 nm.
The target is the same in test [5]. Nature of the test: ELISA, DLL4 coated on plate, Fab at 0.63 nM, absorbance at 450 nm.
Test [6] has the same target. As to the kind of experiment: ELISA, DLL4 coated on plate, Fab at 20 nM, absorbance at 450 nm.
Test [7] shares this target. Nature of the test: ELISA, DLL4 coated on plate, Fab at 0.16 nM, absorbance at 450 nm.
Test [8] shares this target. Nature of the test: ELISA, DLL4 coated on plate, Fab at 2.5 nM, absorbance at 450 nm.
For test [9] the target is unchanged. As to the kind of experiment: ELISA, DLL4 coated on plate, Fab at 1.3 nM, absorbance at 450 nm.
The target is the same in test [10]. Nature of the test: ELISA, DLL4 coated on plate, Fab at 0.31 nM, absorbance at 450 nm.
Test [11] concerns the target T3, Recombinant Human DLL4 (R&D Systems Cat#1506-D4/CF) (human, UniProt Q9NR61 27-524).
T3 construct: Bought recombinant protein; also called delta-like protein 4; rHuman DLL4
Nature of the test: ECL (MSD) binding assay, DLL4 signal divided by blank, repeat experiment.

Test [12] concerns the target T4, rHuman EGF R/Fc Chimera, CF (R&D Systems Cat#344-ER) (human, UniProt P00533 25-645).
T4 construct: Bought recombinant protein
As to the kind of experiment: ECL Multispot (MSD) assay, antigen spotted on plate, 10 nM Fab.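 Further: purified Fab bound to antigen spots for 1 h at 20 °C, then TAG detection antibody, electrochemiluminescence compared with each well's blank, ratio of 4 or more marks a hit.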

Test [13] addresses T5, rHuman P-Cadherin/Fc Chimera, CF (R&D Systems Cat#861-PC) (human, UniProt P22223 108-654).
T5 construct: Bought recombinant protein
The description is as above.

The target in test [14] is T6, rHuman ErbB2/Fc Chimera, CF (R&D Systems Cat#1129-ER) (human, UniProt P04626 23-652).
T6 construct: Bought recombinant protein
The test is described as above.

In test [15] the target is T7, rHuman HGF R/c-MET/Fc Chimera, CF (R&D Systems Cat#358-MT/CF) (human, UniProt P08581 25-932).
T7 construct: Bought recombinant protein; also called HGF R/Fc
The description is as above.

In test [16] the target is T3, Recombinant Human DLL4 (R&D Systems …). The test is described as above.
The target of test [17] is T8, rHuman IGF-1 sR (insulin-like growth factor-1 soluble receptor), CF (R&D Systems Cat#391-GR) (human, UniProt P08069 31-932).
T8 construct: Bought recombinant soluble receptor
The test is described as above.

Test [18] addresses T3, Recombinant Human DLL4 (R&D Systems …). Nature of the test: ECL (MSD) binding assay, immobilised DLL4, repeat experiment.
The target of test [19] is T9, rHuman EGF R/Fc Chimera, CF (R&D Systems Cat#344-ER) (human, UniProt P00533 25-645).
T9 construct: Bought from R&D Systems; also called epidermal growth factor receptor; Fc part of the bought chimera not given
Nature of the test: ECL multispot (MSD) binding assay; antigen spotted on plate, Fab in solution, Ru-labelled anti-kappa detection.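 Further: purified Fab in 1% BSA TBST incubated 1 h at 20 °C with shaking, signal compared with each well's blank, signal/blank ratio of 4 or above counted as binder.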

The target in test [20] is T10, rHuman P-Cadherin/Fc Chimera, CF (R&D Systems Cat#861-PC) (human, UniProt P22223 108-654).
T10 construct: Bought from R&D Systems; Fc part of the bought chimera not given
Described as above.

The target in test [21] is T11, Recombinant Human DLL4 (R&D Systems Cat#1506-D4/CF) (human, UniProt Q9NR61 27-524).
T11 construct: Bought from R&D Systems; also called delta-like protein 4; rHuman DLL4
The description is as above.

Test [22] concerns the target T12, rHuman HGF R/c-MET/Fc Chimera, CF (R&D Systems Cat#358-MT/CF) (human, UniProt P08581 25-932).
T12 construct: Bought from R&D Systems; also called HGF R/Fc; hepatocyte growth factor receptor; Fc part of the bought chimera not given
Described as above.

The target in test [23] is T13, rHuman IGF-1 sR, CF (R&D Systems Cat#391-GR) (human, UniProt P08069 31-932).
T13 construct: Bought from R&D Systems as a soluble receptor; also called insulin-like growth factor-1 soluble receptor
The test is described as above.

Test [24] has as its target T14, rHuman CD44/Fc Chimera, CF (R&D Systems Cat#3660-CD) (human, UniProt P16070 21-220).
T14 construct: Bought recombinant protein; Fc part of the bought chimera not given
As to the kind of experiment: ECL (MSD) multispot binding assay, antigen spotted on plate, 20 nM Fab.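 Further: purified Fab incubated 1 h at 20 °C on antigen-spotted plate, bound Fab revealed with TAG detection antibody, ECL read, antigen signal divided by same-well blank, ratio ≥4 counted as hit.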

The target in test [25] is T15, rHuman IGF-1 sR, (IGF-1 sR), CF (R&D Systems Cat#391-GR) (human, UniProt P08069 31-932).
T15 construct: Bought recombinant soluble receptor; also called insulin-like growth factor-1 soluble receptor
Described as above.

Test [26] deals with T16, rHuman P-Cadherin/Fc Chimera, CF (R&D Systems Cat#861-PC) (human, UniProt P22223 108-654).
T16 construct: Bought recombinant protein; Fc part of the bought chimera not given
The description is as above.

Test [27] addresses T17, rHuman Notch-1/Fc Chimera, CF (R&D Systems Cat#3647-TK) (human, UniProt P46531 19-526).
T17 construct: Bought recombinant protein; Fc part of the bought chimera not given
Described as above.

The target in test [28] is T18, Recombinant Human DLL4 (R&D Systems Cat#1506-D4/CF) (human, UniProt Q9NR61 27-524).
T18 construct: Bought recombinant protein; also called delta-like protein 4; rHuman DLL4
The description is as above.

In test [29] the target is T19, rHuman EGF R/Fc Chimera, CF (R&D Systems Cat#344-ER) (human, UniProt P00533 25-645).
T19 construct: Bought recombinant protein; also called epidermal growth factor receptor; Fc part of the bought chimera not given
The description is as above.

Test [30] addresses T20, rHuman ErbB2/Fc Chimera, CF (R&D Systems Cat#1129-ER) (human, UniProt P04626 23-652).
T20 construct: Bought recombinant protein; also called human epidermal growth factor 2 receptor; Fc part of the bought chimera not given
The description is as above.

Test [31] deals with T21, rHuman Erythropoietin R/Fc Chimera, CF (R&D Systems Cat#963-ER) (human, UniProt P19235 25-250).
T21 construct: Bought recombinant protein; also called EPO R; EPO R/Fc; Fc part of the bought chimera not given
T21 sequence (looked up): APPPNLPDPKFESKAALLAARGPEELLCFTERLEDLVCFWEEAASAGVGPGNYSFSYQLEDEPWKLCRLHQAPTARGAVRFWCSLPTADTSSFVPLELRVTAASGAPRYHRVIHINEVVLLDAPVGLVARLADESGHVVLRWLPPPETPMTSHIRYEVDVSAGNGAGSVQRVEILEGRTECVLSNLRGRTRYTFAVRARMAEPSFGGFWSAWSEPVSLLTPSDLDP
The test is described as above.

Numbering of substitutions follows the chain as printed. Numbers in names are those of the source.

B1: Fab VH1-46_IGHD6-6*01_IGHJ1*01 S102A/S103P/S104F/H111F F29A & L6_IGKJ1*01 (Fab, V domains shown)
VH: QVQLVQSGAEVKKPGASVKVSCKASGYTATSYYMHWVRQAPGQGLEWMGIINPSGGSTSYAQKFQGRVTMTRDTSTSTVYMELSSLRSEDTAVYYCAREEYAPFSAEYFQFWGQGTLVTVSS
VL: not shown
notes: Tested as Fab (CH1 with His6/Flag tags; kappa CL), expressed in E. coli; also called APFF F29A
On to B1, for which the “ECL Signal/Noise” value in [1] was determined as 190. Moreover, in [2], the “ELISA (Signal-Noise)” value amounted to 0.67.

B2: Fab VH1-46_IGHD6-6*01_IGHJ1*01 S102A/S103P/S104F/H111F/N52L/S54T/G56H (APFF LTH) & L6_IGKJ1*01 (Fab, V domains shown)
VH: B1 VH with A29F, N52L, S54T, G56H
VL: not shown
notes: Tested as a Fab made in E. coli: VH cloned into Plasmid A (CH1, His6 and Flag tags), kappa VL into Plasmid C (kappa CL); also called H:APFF LTH & L:wt
B2: the ELISA signal is 2.35 in test [3]; 2.48 in test [4]; 1.37 in [5]; 2.4 in [6]; 2.35 in test [7]; 2.15 in test [8]. In addition, the ELISA signal in test [9] is 0.653; in test [10], 2.4.

B3: Fab VH1-46_IGHD6-6*01_IGHJ1*01 S102A/S103P/S104F/H111F (APFF) & L6_IGKJ1*01 (Fab, V domains shown)
VH: B1 VH with A29F
VL: not shown
notes: Tested as Fab expressed in E. coli; Heavy chain from Plasmid A (CH1, His6 and Flag tags), kappa light chain from Plasmid C (CL); also called H:APFF & L:wt
For the molecule B3, in [11], the Signal/Noise worked out at 694. The ECL signal was 383 in [12]; 347 in test [13]; 354 in test [14]; 347 in test [15]; 78400 in test [16]; 397 in test [17]. Also, in test [18], the ECL signal was determined as 197000.

B4: Fab VH1-46_IGHD6-6*01_IGHJ1*01 S102A/S103P/S104F/H111F Y33A & L6_IGKJ1*01 (Fab, V domains shown)
VH: B1 VH with A29F, Y33A
VL: not shown
notes: Tested as Fab (CH1 with His6/Flag tags; kappa CL), expressed in E. coli; also called APFF Y33A
In the case of B4, the “ECL Signal/Noise” value in [1] came to 136. The “ELISA (Signal-Noise)” value in test [2] was 0.09.

B5: Fab VH1-46_IGHD6-6*01_IGHJ1*01 S102A/S103P/S104F/H111F T30A & L6_IGKJ1*01 (Fab, V domains shown)
VH: B1 VH with A29F, T30A
VL: not shown
notes: Tested as Fab (CH1 with His6/Flag tags; kappa CL), expressed in E. coli; also called APFF T30A
In the case of B5, the “ECL Signal/Noise” value in [1] was 457. The “ELISA (Signal-Noise)” value in test [2] turned out to be 0.64.

B6: Fab VH1-46_IGHD6-6*01_IGHJ1*01 S102A/S103P/S104F/H111F F29A & L6_IGKJ1*01 (Fab, V domains shown)
VH: B1 VH
VL: not shown
notes: Tested as a Fab made in E. coli; The heavy chain vector (Plasmid A) adds CH1 with His6 and Flag tags; The light chain vector (Plasmid C) adds kappa CL; also called APFF F29A
Take B6: the ECL signal in test [19] was found to be 537; in [20] it was 508; in test [21] it was 109000; in test [22] it was 512; in [23], 439.

B7: Fab VH1-46_IGHD6-6*01_IGHJ1*01 S102A/S103P/S104F/H111F I51T/N52V (APFF I51T/N52V) & L6_IGKJ1*01 (Fab, V domains shown)
VH: B1 VH with A29F, I51T, N52V
VL: not shown
notes: Tested as a Fab made in E. coli: VH in Plasmid A (CH1, His6 and Flag tags), kappa VL in Plasmid C (kappa CL)
For B7, the ELISA signal in [3] stood at 0.506; in [4], 0.724; in test [5], 0.115; in [6], 0.648; in test [7] it was 0.506; in test [8] it was 0.358. The ELISA signal in test [9] came to 0.055; in [10], 0.648.

B8: Fab VH1-46_IGHD6-6*01_IGHJ1*01 S102A/S103P/S104F/H111F T28A & L6_IGKJ1*01 (Fab, V domains shown)
VH: B1 VH with T28A, A29F
VL: not shown
notes: Tested as Fab (CH1 with His6/Flag tags; kappa CL), expressed in E. coli; also called APFF T28A
As for B8, the “ECL Signal/Noise” value in test [1] was 334. The “ELISA (Signal-Noise)” value in [2] amounted to 0.77.

B9: Fab VH1-46_IGHD6-6*01_IGHJ1*01 S102A/S103P/S104F/H111F S31A & L6_IGKJ1*01 (Fab, V domains shown)
VH: B1 VH with A29F, S31A
VL: not shown
notes: Tested as Fab (CH1 with His6/Flag tags; kappa CL), expressed in E. coli; also called APFF S31A
For the molecule B9, the “ECL Signal/Noise” value in [1] worked out at 453. Besides, the “ELISA (Signal-Noise)” value in [2] was 0.47.

B10: Fab VH3-23_IGHD2-21*01>3_IGHJ6*01 H100E/S108P/Y113G/Y111S & V2-13_IGLJ2*01 (Fab, V domains shown)
VH: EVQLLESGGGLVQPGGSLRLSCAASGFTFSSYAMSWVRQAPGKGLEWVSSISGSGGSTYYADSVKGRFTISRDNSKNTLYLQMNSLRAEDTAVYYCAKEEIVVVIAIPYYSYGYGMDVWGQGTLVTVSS
VL: SSELTQDPAVSVALGQTVRITCQGDSLRSYYASWYQQKPGQAPVLVIYGKNNRPSGIPDRFSGSSSGNTASLTITGAQAEDEADYYCNSRDSSGNHLVVFGGGTKLTVL
notes: Fab made in E. coli: VH joined to CH1 (with His and Flag tags, plasmid A) and VL to lambda CL (plasmid E); also called EPG Y111S
On to B10, for which the “ECL signal/blank ratio” value in [24] came to 1.2; in test [25], 1.3; in [26], 5; in test [27] it was 1.9; in test [28] it was 1.7; in [29], 1.8. Further, the “ECL signal/blank ratio” value in [30] is 2.1; in test [31], 30.1.
